# Experimental data as given in US20230189818A1, “RNA-BASED CONTROL OF BOTRYTIS” (priority 2021, published 2023).
# What was measured:
# Botrytis cinerea conidia = test: In vitro liquid-based assay (fungal biomass, 96-well plates, Cytation 5); type: cell-based; conditions: co-incubated with conidia for three days, vs untreated control
# Method in brief: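 Conidia (5000/mL stock) were co-incubated with dsRNA or control treatments in pH 6.0 minimal medium. Incubation ran 72 h at 23 °C, shaking at 120 rpm under continuous light. Fungal biomass was measured by brightfield imaging (8 slices per well, 2.5× lens) and expressed as average reduction versus control.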
# [1] = test system: Botrytis cinerea isolate (B05.10); test: Detached leaf assay (tomato leaflets, lesion size); type: in vivo; conditions: five days post inoculation, vs untreated inoculated control
# Method in brief: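 Tomato (Brandywine) detached lateral leaflets were sprayed with treatment in 0.03% Silwet L-77 24 h before inoculation. Two 10 μL drops of 1×10^5 conidia/mL in 7% grape juice were applied per leaflet, which was then incubated at 23 °C, ~75% RH, 12/12 light. Lesion diameter was measured at 5 DPI against the untreated inoculated control, ten replicates.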
# B. cinerea = test: Open-air field trial on snap bean (Example 4.3, AUDPC of % disease severity); type: in vivo, Botrytis cinerea; conditions: Switch 525 g ai/ha, GS349 20 and 40, GS2280 10 and 40, GS2303 10, 20 and 40, GS2297 20 g ai/ha, FIG. 9
# Description: RNAi compositions, each containing a dsRNA comprising a trigger sequence (GS349, GS2280, GS2303, or GS2297) described herein were evaluated for ability to control botrytis on snap bean in open-air filed trials. All test samples were formulated with RO water, propylene glycol, a linear alcohol ethoxylate, a lignosulfanate, sodium citrate dihydate, a polyacrylic acid polymer, two biocide compositions, anhydrous citric acid, and an antifoam, all of which are readily commercially available. Formulation samples were tank mixed with a standard adjuvant, the non-ionic surfactant, Activator 90 0.125%v/v. Compositions were tested at concentrations of 10, g ai/ha, 20 g ai/ha, and 40 g ai/ha. Positive controls were a chemical standard, Switch 525 g ai/ha and a biological standard, Double Nickel LC 9.4 I/ha, both of which were also tank mixed with Activator 90 0.125% v/v. As above, an untreated check was used as a negative control.
# Compositions were applied to snap bean plants using a small plot sprayer delivering 50 gallons of water per acre. A total of three applications were used for each sample and positive control. Disease state was evaluated beginning 8 days after the first application and ending 37 days after the third and final application. Percent Disease Severity was assessed and AUDPC was calculated in the same manner as noted in Example 4.1.
molecule,measurement,setting,value
"GS2297: dsRNA trigger targeting B. cinerea Bcrpb5 (XM_024693733.1); trigger SEQ ID NO 23, RNA 35, reverse complement 47 (nucleic acid, listed as Botrytis cinerea) sense: UGCACCAUCAGGUCCCGCUCAAAAGAUUAUUCCCGCUGUCGCAUCCGAGACAAGAAUCGAGACCUUCGUCGAGCAAGAUUUACUUGUCAAUAUUACACAUCAUGAAUUGGUUCCCAAGCAUGUUUUGUUAAGUAGAGAAGAGAGGGCCAAGUUGUUGUCAAGAUAUAGAUUGAAGGAUACUCAACUCCCACGUAUUCAGGCUGCGGAUCCAGUUGCAAAAUAUUUGGGAUUGAGAAGAGGGCAGGUCGUUAAGAUUAUCAGAAAGUCGGAAACUGCUGGUCGUUAUGCCAGUUACAGAUUGUGCGUAUAAUGGAGCUGGAGGGUAGAUGAUUUGGUGUUAAUAACUAGGGAGUUUCUUGGGAAAAAUUUGCAUAUUUGGGGAAGGCGUAAUAGGCUGGAAGAAAGACUGAGGAUGAGAUUGUCUAUUUUGGCUUUCCAGGAAGCAAUACUUUGAGACAUGAAAUUUGAUAUUAAAUUUCUUGUUCUGUAUAUUUCUGAUAGUUUCAGAGCUUUUCAAUAAGAUCUAUUCUACAGUUUUAAGAAUCCAGACUCACCCUUUGAGAAGCUCAUACAAAGUUCCUUCCUA antisense: UAGGAAGGAACUUUGUAUGAGCUUCUCAAAGGGUGAGUCUGGAUUCUUAAAACUGUAGAAUAGAUCUUAUUGAAAAGCUCUGAAACUAUCAGAAAUAUACAGAACAAGAAAUUUAAUAUCAAAUUUCAUGUCUCAAAGUAUUGCUUCCUGGAAAGCCAAAAUAGACAAUCUCAUCCUCAGUCUUUCUUCCAGCCUAUUACGCCUUCCCCAAAUAUGCAAAUUUUUCCCAAGAAACUCCCUAGUUAUUAACACCAAAUCAUCUACCCUCCAGCUCCAUUAUACGCACAAUCUGUAACUGGCAUAACGACCAGCAGUUUCCGACUUUCUGAUAAUCUUAACGACCUGCCCUCUUCUCAAUCCCAAAUAUUUUGCAACUGGAUCCGCAGCCUGAAUACGUGGGAGUUGAGUAUCCUUCAAUCUAUAUCUUGACAACAACUUGGCCCUCUCUUCUCUACUUAACAAAACAUGCUUGGGAACCAAUUCAUGAUGUGUAAUAUUGACAAGUAAAUCUUGCUCGACGAAGGUCUCGAUUCUUGUCUCGGAUGCGACAGCGGGAAUAAUCUUUUGAGCGGGACCUGAUGGUGCA",Average % Reduction in Biomass,Botrytis cinerea conidia; 25 ppm dsRNA,11%
same,Average % Reduction in Biomass,Botrytis cinerea conidia; 150 ppm dsRNA,24%
same,Average % Reduction in Lesion Size,[1]; 30 ppm,27.63%
same,Average % Reduction in Lesion Size,[1]; 50 ppm,24.35%
same,Disease state compared to treatment with the chemical standard (AUDPC),B. cinerea,no significant difference
